Experimental data taken from the nanobody polyreactivity screen of Harvey et al. (2022).

Assay: yeast display, Sf9 membrane polyspecificity reagent, FACS + sequencing; frameworks hold sequencing errors
Summary of the method: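 In a synthetic yeast display library (Saccharomyces cerevisiae BJ5465), nanobody expression was induced with galactose for 36–48 hours. FACS gates were set low and high (top ~1%) using anti-HA fluorescence for expression and streptavidin fluorescence for binding of the Sf9 membrane reagent. Each polyreactivity label is drawn from the gate of origin.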

| Sequence | polyreactivity (PSR sort gate) |
| --- | --- |
| QVQLVESGGGLVQAGGSLRLSCAASGRIFYFNGMGWYRQAPGKERELVASISASGDRTYYADSVKGRFTISRDNAKNTVYLQMNSLKPEDTAVYYCATDANTYTKYDYWGQGTQVTVSS | low polyreactivity |
| QVQLVESGGGLVQAGGSLRLSCAASGRIFYFYAIGWYRQAPGKERELVASITSAGSTYYADSVKGRFTISRDNAKNTVYLQMNSLKPADTAVYYCARVRWGSRGGYIAYYGGGYWGQGTQVTVSS | high polyreactivity |
| QVQLVESGGGLVQAGGSLRLSCAASGRIFYFYAMGWYRQAPGKERELVAAISTSGGSTYYADSVKGRFTISRDNAKNTVYLQMNRLKPEDTAVYYCASRFRYYGSEYDYWGQGTQVTVSS | low polyreactivity |
| QVQLVESGGGLVQAGGSLRLSCAASGRIFYGNAMGWYRQAPGKERELVATISSSGGRTTYADSVKGRFTISRDNAKNTVYLQMNSLKPEDTAVYYCNARYRTRSLKYYYWGQGTQVTVSS | high polyreactivity |
| QVQLVESGGGLVQAGGSLRLSCAASGRIFYGNVIGWYRQAPGKERELVADIYYDGGSTYYADSVKGRFTISRDNAKNTVYLQMNSLKPEDTAVYYCNKREVFIYGTTYDYWGQGTQVTVSS | low polyreactivity |
| QVQLVESGGGLVQAGGSLRLSCAASGRIFYGNVMGWYRQAPGKERELVAVITSGGNTNYADSVKGRFTISRDNAKNTVYLQMNSLKPEDTAVYYCATAVVAGVWGYDYWGQGTQVSVSS | low polyreactivity |
| QVQLVESGGGLVQAGGSLRLSCAASGRIFYGYAMGWYRQAPGKERELVAAISSSGGSTYYADSVKGRFTISRDNAKNTVYLQMNSLKPEDTAVYYCNAQRYRPGYWYDYWGQGTQVTVSS | high polyreactivity |
| QVQLVESGGGLVQAGGSLRLSCAASGRIFYGYAMGWYRQAPGKERELVAAITWSGGRTYYADSVKGRFTISRDNAKNTVYLQMNSLKPEDTAVYYCNRPRRTSPSTYYHWGQGTQVTVSS | low polyreactivity |
| QVQLVESGGGLVQAGGSLRLSCAASGRIFYGYAMGWYRQAPGKERELVASISRRGSSTYYADSVKGRFTISRDNAMNTVYLQMNSLKPEDTAVYYCAAGYYPFNYWGQGTQVTVSS | high polyreactivity |
| QVQLVESGGGLVQAGGSLRLSCAASGRIFYHNAMGWYRQAPGKEREFVAAINWRGGNTYYADSVKGRFTISRDNAKITVYLQMNSLKPEDTAVYYCNALYKRYTDYDYWGQGTQVTVSS | high polyreactivity |
| QVQLVESGGGLVQAGGSLRLSCAASGRIFYHNAMGWYRQAPGKERELVAAISWSGGNTYYADSVKGRFTISRDNAKNTVYLQMNSLKPEDTAVYYCNRYWYRDRLWLYDYWGQGTQVTVSS | high polyreactivity |
| QVQLVESGGGLVQAGGSLRLSCAASGRIFYHNARGWYRQAPGKERELVAAIYSTGGSTYYADSVKGRFTISRDNAKNTVYLQMNSLKPEDTAVYYCATQYFRKYGYDYWGKGTQVTVSS | low polyreactivity |
| QVQLVESGGGLVQAGGSLRLSCAASGRIFYHYAMGWYRQAPGKERELVATISASGSRTSYADSVKGRFTISRDNAKNTVYLQMNSLKPEDTGVYYCAADAPFWYGLDYWGQGTQVTVSS | high polyreactivity |
| QVQLVESGGGLVQAGGSLRLSCAASGRIFYIHAMGWYRQAPGKERELVAAITSNGGSTYYADSVKGRFTISRDNAKNTVYLQMNCLKPEDTAVYYCAARRYKVSRTSYGYGYWGQGTQVTVSS | high polyreactivity |
| QVQLVESGGGLVQAGGSLRLSCAASGRIFYINAMGWYRQAPGKERELVAAISGSGGDTYYADSVKGRFTISRDNAKNTVYLQMNSMKPEDTAVYYCGAEVYTWGQGTQVTVSS | low polyreactivity |
| QVQLVESGGGLVQAGGSLRLSCAASGRIFYINAMGWYRQAPGKERELVAAITSNGGSTYYADSVKGRFTISRDNAKNTVYLQMNSLKPEDTSVYYCAVSPRVPFRKPVFTPYNMYYWGQGTQVTVSS | high polyreactivity |
| QVQLVESGGGLVQAGGSLRLSCAASGRIFYIYAMGWYRQAPGKERELVATITGSGGGTYYADSVKGRFTISRDNAKNTVYLQMNSLKPEDTAVYYCAAQVLTDPDNYWGQGTQVTVSS | low polyreactivity |
| QVQLVESGGGLVQAGGSLRLSCAASGRIFYKYAMGWYRQAPGKERELVAAISSGGNTNYADSVKGRFTISRDNAKNTVYLQMNSLKPEDTAVYYCNAKRAYYRGYYPDNYWGQGTQVTVSS | high polyreactivity |
| QVQLVESGGGLVQAGGSLRLSCAASGRIFYKYAMGWYRQAPGKERELVAVINRGGTTYYADSVKGRFTISRDNGKNTVYLQMNSLKPDDTAVYYCNTVADYRRFGYWGQGTQVTVSS | high polyreactivity |
| QVQLVESGGGLVQAGGSLRLSCAASGRIFYKYVMGWYRQAPGKERELVAAINRSGGTTYYADSVKGRFTISRDNAKNTVYLQMNSLKPEDTAVYYCNATLPDYWPYYYYQGGDDYWGQGTQVTVSS | low polyreactivity |
| QVQLVESGGGLVQAGGSLRLSCAASGRIFYLNVMGWYRQAPGKERELVAAITRRDVTTYADSVKGRFTISRDNAKNTVYLQMNSLKPEDTAVYYCNAEYVPYYEYESWGQGTQVTVSS | low polyreactivity |
| QVQLVESGGGLVQAGGSLRLSCAASGRIFYLYAMGWYRQAPGKERELVAGITSGGRTNYADSVKGRFTISRDNAKNTVYLQMNSLKPEDTAVYYCAAFYWGRYTGYYWGQGTQVTVSS | high polyreactivity |

| Sequence | polyreactivity (PSR sort gate) |
| --- | --- |
| QVQLVESGGGLVQAGGSLRLSCAASGRIFYLYAMGWYRQAPGKERELVAGITSGGRTNYADSVKGRFTISRDNAKNTVYLQMNSLKPEDTAVYYCAAYYWGRYTGYYWGQGTQVTVSS | high polyreactivity |
| QVQLVESGGGLVQAGGSLRLSCAASGRIFYLYAMGWYRQAPGKERELVATINTSGGITYYADSVKGRFTISRDNAKNTVYLQMNSLKPEDTAVYYCNADWEWQYFYFRPGGYWGQGTQVTVSS | low polyreactivity |
| QVQLVESGGGLVQAGGSLRLSCAASGRIFYLYAMGWYRQATGKERELVAAITWSGGSTTYADSVKGRFTISRDTAKNTVYLQMNSLNPEDTAVYYCNADGWIFPSFSPMDYWGQGTQVTVSS | low polyreactivity |
| QVQLVESGGGLVQAGGSLRLSCAASGRIFYNNAMGWYRQAPGKERELVAGISRSSGRTYYADSVKGRFTISRDIAKNTVYLQMNSLKPEDTAVYYCNTVSWPLSSKYYYWGQGTQVTVSS | high polyreactivity |
| QVQLVESGGGLVQAGGSLRLSCAASGRIFYNYAMGWSRQAPGKERELVAANSGSGGSTYYADSVKGRFTISRDSAMNTVYFQMNSLKPEDTAVYYCSTSGPQYYSRNFDYWGQGTQVTVSS | low polyreactivity |
| QVQLVESGGGLVQAGGSLRLSCAASGRIFYNYAMGWYRPAPGKDRVLVAAISVSGGSTYYADSEKGRFTISRDNAKNTVYLQMNSLKPEDTAVYYCAARRDRGYTREYWGQGTQVTVST | high polyreactivity |
| QVQLVESGGGLVQAGGSLRLSCAASGRIFYNYAMGWYRQAPGKERELVAAISGSGGSTYYADSVKGRFTISRDNAKNTVYLQMNSLTPEDTAVYYCSTSGPQYYSRNFDYWGQGTQVTVSS | low polyreactivity |
| QVQLVESGGGLVQAGGSLRLSCAASGRIFYNYAMGWYRQAPGKERELVAAISGSGGSTYYADSVKGRFTISRDNAMNTVYLQMNSLKPEDTAVYYCSTSGPQYYSRNFDYWGQGTQVTVSS | low polyreactivity |
| QVQLVESGGGLVQAGGSLRLSCAASGRIFYPNVMGWYRQAPGKERELVAAISASGGRTYYADSVKGRFTISRDNAKNTVYLQMNSLKPEDTAVYYCAADTVPSTRSWDTRYWEYEYWGQGTQVTVSS | low polyreactivity |
| QVQLVESGGGLVQAGGSLRLSCAASGRIFYPYAMGWYRQAPGKERELVAAISWSTGNTYYADSVKGRFTISRDNAKNTVYLQMNSLKPEDTAVYYCNARLAPVRRYWYSGYDYWGQGTQVTVSS | high polyreactivity |
| QVQLVESGGGLVQAGGSLRLSCAASGRIFYPYAMGWYRQAPGKEWELVAAINRSAGSTSYADSVKGRFTISRDNAKNTVYLQMKSLKPEDTAVYYCAAQGRWHRHFDYWGQGTQVNVSS | high polyreactivity |
| QVQLVESGGGLVQAGGSLRLSCAASGRIFYPYSMGWYRQAPGKERELVASINYRGGSTYYADSVNGRFTISRDNAKNTVYLQMNSLKPEDTAVYYCNAVRGFYRYSSSMGYWGQGTQVTVSS | high polyreactivity |
| QVQLVESGGGLVQAGGSLRLSCAASGRIFYPYVMGWYRQAPGKERELVAAISASGGRTYYADSVKGRFTISRDNAKNTVYLQMNSLKPEDTAVYYCAAQGWRYYRTVVPMDYWGQGTQVTVSS | low polyreactivity |
| QVQLVESGGGLVQAGGSLRLSCAASGRIFYPYVMGWYRQAPGKERELVAAISDSTGSTYYADSVKGRFTISRDNAKNTVYLQMNSLKPEDTAVYYCAAGWFYATYWRFYYWGQGTQVTVSS | low polyreactivity |
| QVQLVESGGGLVQAGGSLRLSCAASGRIFYQNAMGWYRQAPGKERELVADISSGGSTYYADSVKGRFTISRDNAKNTVYLQMNSLKPEDTAVYYCAAEGQLFDLYDYWGQGTQVTVSS | low polyreactivity |
| QVQLVESGGGLVQAGGSLRLSCAASGRIFYRNAMGWYRPAPGKERELVAAISGSGGSTSYADSVKGRFTISRDNAKNTVYLQMNSLKPEDTAVYYCAAYKLYWGQGTQVTVSS | high polyreactivity |
| QVQLVESGGGLVQAGGSLRLSCAASGRIFYRNAMGWYRQAPGKERELVAAISSSTGSTYYADSVKGRFTISRDNAKNTVYLQMNSLKPEDTAVYYCNTARNRARYYYWGQGTQVTVSS | high polyreactivity |
| QVQLVESGGGLVQAGGSLRLSCAASGRIFYRNAMGWYRQAPGKERELVAAITIGTNTYYADSVKGRFTISRDNAKITVYLQMNSLKPEDTAVYYCAVAVFLYTGGVDYWGQGTQVTVSS | low polyreactivity |
| QVQLVESGGGLVQAGGSLRLSCAASGRIFYRYAMGWYIQAPAKERELFAAITGSGGSTYYADSVKGRFTISRDNAKNTVYFQMNSLKPEDTAVYYCNAVERSAFRGVRFDYDYWGQGTQVTLSS | high polyreactivity |
| QVQLVESGGGLVQAGGSLRLSCAASGRIFYRYAMGWYRQAPGKERELVAGITRGGSTYYADSVKGRFTISRDNAKNTVYLQMNSLKPEDTAVYYCNVRWSPAGTGLLDFWGQGSQVTVSS | high polyreactivity |
| QVQLVESGGGLVQAGGSLRLSCAASGRIFYRYAMGWYRQAPGKERELVASISGSGGRTYYADSVKGRFTISRDNAKNTVYLQMNSLKPEDTAVYYCAARIRPSYDWGQGTQVTVSS | high polyreactivity |
